# Experimental data: patent US20250090695A1, “IMMUNOSTIMULANT-CYTOTOXIC CONJUGATE COMPOSITION AND METHODS FOR CANCER TREATMENT” (The Research Foundation for the State University of New York, priority 2022, published 2025)
# Like-named read-outs stand apart in the source and are kept apart here.
# How the values were obtained:
# [1] = OLINDA dosimetry to adult male from mouse biodistribution
# [2] = Biodistribution in a xenograft model of prostate cancer with PC-3 PiP (PSMA(+)) and PC-3 flu (PSMA(−)) tumors; format: in vivo, Male NCr nude mice; conditions: male, mouse, total radioactivity, PC-3 PiP/PC-3 flu xenograft, NCr nude mice
# Description: Biodistribution analyses of ^177Lu-RIMS-1 and ^177Lu-PSMA-617 were carried out in a xenograft model of prostate cancer with a PC-3 PiP tumor (PSMA(+)) on the left shoulder of a murine subject, and a PC-3 flu tumor (PSMA(−)) on the right should of a murine subject. Murine subjects examined were Male NCr nude mice.
# [3] = system: RM1-PGLS tumors; format: in vivo, murine subjects
# Description: FIG. 11A-11C show a visual schematic of RM1-PGLS tumor insertion in mice followed by T-cell population analysis (FIG. 11A), and tumor efficacy study analysis for in vivo tumor treatment with experimental ^177Lu-RIMS-1 compound compared with control compounds: ^177Lu-PSMA-617, unlabeled Lu-RIMS, and saline (FIG. 11B) measuring tumor volume (left), and percent survival (right).
# Murine subjects were treated with RIMS compounds and tumor volume (FIG. 11B, left), subject viability measured as percent survival (FIG. 11B, right), subject weight (FIG. 11C), were described and analyzed as shown in FIGS. 11A-11C. Median overall survivability (OS) in murine subjects treated with RIMS compounds and control therapies.
# [4] = system: T-cells (CD3); assay: Immuno-PET ROI analysis of 89Zr-DFO-anti-CD3 after therapy (tumor infiltrating T-cells); format: in vivo, murine subjects
# Description: FIG. 13A-13C describes a method and results for T-cell detection using immuno-positron emission tomography (PET).
# FIG. 14A-14D show graphical representations of tumor infiltrating T-cell analysis after administration of a therapeutic compound or control. Infiltration was measured using immuno-positron emission tomography (PET).
# [5] = PSMA(+) PC-3 PiP tumor, read-out: Biodistribution PSMA (+) (PC3-PIP) tumor (% ID/g ± SD)
# [6] = PSMA(-) PC-3 flu tumor, read-out: Biodistribution PSMA (−) (PC3-Flu) tumor (% ID/g ± SD)
# [7] = blood, read-out: Biodistribution Blood (% ID/g ± SD)
# [8] = bone, read-out: Biodistribution Bone (% ID/g ± SD)
# [9] = heart, read-out: Biodistribution Heart (% ID/g ± SD)
# [10] = kidney, read-out: Biodistribution Kidney (% ID/g ± SD)
# [11] = liver, read-out: Biodistribution Liver (% ID/g ± SD)
# [12] = small intestine, read-out: Biodistribution Sm Int (% ID/g ± SD)
# [13] = spleen, read-out: Biodistribution Spleen (% ID/g ± SD)
compound,measurement,setting,value
"CCCCc1nc2c(N)nc3ccccc3c2n1Cc1ccc(CNC(=O)OCc2ccc(NC(=O)[C@H](C)NC(=O)[C@@H](NC(=O)CCCCC(=O)N[C@@H](CCCCNC(=O)CN3CCN(CC(=O)O)CCN(CC(=O)O)CCN(CC(=O)O)CC3)C(=O)NC[C@H]3CC[C@H](C(=O)N[C@@H](Cc4ccc5ccccc5c4)C(=O)NCCCC[C@H](NC(=O)N[C@@H](CCC(=O)O)C(=O)O)C(=O)O)CC3)C(C)C)cc2)cc1 [^177Lu-RIMS-1, metal not drawn]","OLINDA dosimetry to Adult Male, Spleen",[1]; Target Organ Spleen,228.00 μSv/MBq
same,"OLINDA dosimetry to Adult Male, Stomach Wall",[1]; Target Organ Stomach Wall,2.02 μSv/MBq
same,"OLINDA dosimetry to Adult Male, Thymus",[1]; Target Organ Thymus,0.95 μSv/MBq
same,"OLINDA dosimetry to Adult Male, Thyroid",[1]; Target Organ Thyroid,0.36 μSv/MBq
same,"OLINDA dosimetry to Adult Male, Today Body",[1]; Target Organ Total Body,7.73 μSv/MBq
same,"OLINDA dosimetry to Adult Male, Tumor",[1]; Target Organ Tumor,237.00 μSv/MBq
same,"OLINDA dosimetry to Adult Male, Urinary Bladder Wall",[1]; Target Organ Urinary Bladder Wall,10.90 μSv/MBq
same,tissue uptake at 2 h,[2]; [5],7.16 ± 2.68 %ID/g
same,tissue uptake at 24 h,[2]; [5],6.04 ± 1.76 %ID/g
same,tissue uptake at 72 h,[2]; [5],2.65 ± 1.03 %ID/g
same,tissue uptake at 2 h,[2]; [6],1.65 ± 0.24 %ID/g
same,tissue uptake at 24 h,[2]; [6],0.16 ± 0.01 %ID/g
same,tissue uptake at 2 h,[2]; [7],3.36 ± 0.2 %ID/g
same,tissue uptake at 24 h,[2]; [7],0.06 ± 0.01 %ID/g
same,tissue uptake at 72 h,[2]; [7],0.01 ± 0.01 %ID/g
same,tissue uptake at 2 h,[2]; [8],0.72 ± 0.15 %ID/g
same,tissue uptake at 24 h,[2]; [8],0.17 ± 0.06 %ID/g
same,tissue uptake at 72 h,[2]; [8],0.1 ± 0.04 %ID/g
same,tissue uptake at 2 h,[2]; [9],1.28 ± 0.08 %ID/g
same,tissue uptake at 24 h,[2]; [9],0.16 ± 0.02 %ID/g
same,tissue uptake at 72 h,[2]; [9],0.06 ± 0.01 %ID/g
same,tissue uptake at 2 h,[2]; [10],24.5 ± 2.58 %ID/g
same,tissue uptake at 24 h,[2]; [10],6.24 ± 1.03 %ID/g
same,tissue uptake at 72 h,[2]; [10],2.1 ± 0.31 %ID/g
same,tissue uptake at 2 h,[2]; [11],7.95 ± 0.35 %ID/g
same,tissue uptake at 24 h,[2]; [11],3.19 ± 0.38 %ID/g
same,tissue uptake at 72 h,[2]; [11],1.36 ± 0.29 %ID/g
same,tissue uptake at 2 h,"[2]; muscle, read-out: Biodistribution Muscle (% ID/g ± SD)",0.36 ± 0.06 %ID/g
same,tissue uptake at 2 h,[2]; [12],1.15 ± 0.1 %ID/g
same,tissue uptake at 24 h,[2]; [12],0.54 ± 0.8 %ID/g
same,tissue uptake at 2 h,[2]; [13],2.32 ± 0.052 %ID/g
same,tissue uptake at 24 h,[2]; [13],0.77 ± 0.31 %ID/g
same,tissue uptake at 72 h,[2]; [13],0.29 ± 0.11 %ID/g
same,Relative body weight,"[3]; mouse, in vivo",decrease in relative body weight
same,Median OS,"[3]; overall survival post treatment, RM1-PGLS tumors, P < 0.0007 printed for 177Lu-RIMS-1",30 days
same,% Injected Dose/cc of 89Zr-DFO-anti-CD3 (ROI),"[4]; Blood, 8 days after administration of therapy",7.95 ± 0.75 % Injected Dose/cc
same,% Injected Dose/cc of 89Zr-DFO-anti-CD3 (ROI),"[4]; Blood, 9 days after administration of therapy",7.075 ± 0.94 % Injected Dose/cc
same,% Injected Dose/cc of 89Zr-DFO-anti-CD3 (ROI),"[4]; Blood, 10 days after administration of therapy",4.98 ± 0.61 % Injected Dose/cc
same,% Injected Dose/cc of 89Zr-DFO-anti-CD3 (ROI),"[4]; Blood, 11 days after administration of therapy",4.33 ± 1.40 % Injected Dose/cc
same,% Injected Dose/cc of 89Zr-DFO-anti-CD3 (ROI),"[4]; Blood, 12 days after administration of therapy",3.07 ± 1.23 % Injected Dose/cc
same,% Injected Dose/cc of 89Zr-DFO-anti-CD3 (ROI),"[4]; Spleen, 8 days after administration of therapy",15.65 ± 0.96 % Injected Dose/cc
same,% Injected Dose/cc of 89Zr-DFO-anti-CD3 (ROI),"[4]; Spleen, 9 days after administration of therapy",19.39 ± 3.46 % Injected Dose/cc
same,% Injected Dose/cc of 89Zr-DFO-anti-CD3 (ROI),"[4]; Spleen, 10 days after administration of therapy",18.45 ± 1.30 % Injected Dose/cc
same,% Injected Dose/cc of 89Zr-DFO-anti-CD3 (ROI),"[4]; Spleen, 11 days after administration of therapy",19.06 ± 2.34 % Injected Dose/cc
same,% Injected Dose/cc of 89Zr-DFO-anti-CD3 (ROI),"[4]; Spleen, 12 days after administration of therapy",18.54 ± 1.04 % Injected Dose/cc
same,% Injected Dose/cc of 89Zr-DFO-anti-CD3 (ROI),"[4]; Tumor, 8 days after administration of therapy",15.85 ± 3.12 % Injected Dose/cc
same,% Injected Dose/cc of 89Zr-DFO-anti-CD3 (ROI),"[4]; Tumor, 9 days after administration of therapy",14.94 ± 2.65 % Injected Dose/cc
same,% Injected Dose/cc of 89Zr-DFO-anti-CD3 (ROI),"[4]; Tumor, 10 days after administration of therapy",13.74 ± 3.74 % Injected Dose/cc
same,% Injected Dose/cc of 89Zr-DFO-anti-CD3 (ROI),"[4]; Tumor, 11 days after administration of therapy",12.20 ± 4.43 % Injected Dose/cc
same,% Injected Dose/cc of 89Zr-DFO-anti-CD3 (ROI),"[4]; Tumor, 12 days after administration of therapy",11.83 ± 5.22 % Injected Dose/cc
